From paper doi:10.1101/2024.03.22.585941 (bioRxiv, 2024)

Target: the molecule itself
Test: SEC

B1: LexAPaS125A, full-length P. aeruginosa LexA carrying the S125A mutation in the catalytic dyad (natural protein)
chain: MQKLTPRQAEILSFIKRCLEDHGFPPTRAEIAQELGFKSPNAAEEHLKALARKGAIEMTPGASRGIRIPGFEPHAANDDEGLPVIGRVAAGAPILAEQNIEESCRINPAFFNPRADYLLRVRGMAMKDIGILDGDLLAVHVTREARNGQVVVARIGEEVTVKRFKREGSKVWLLAENPEFAPIEVDLKEQELIIEGLSVGVIRR
stoichiometry N: 2
